Experiments:
Experiment in all cases: FabCys affinity determination
rNPR1-ANP complex = target: T1, rNPR1-ANP complex (rat, UniProt P01160 124-151 (human entry), limits assumed)
T1 construct: rNPR1 antigen in the presence of ANP; also called rNPR1 + 100 nM ANP
T1 sequence: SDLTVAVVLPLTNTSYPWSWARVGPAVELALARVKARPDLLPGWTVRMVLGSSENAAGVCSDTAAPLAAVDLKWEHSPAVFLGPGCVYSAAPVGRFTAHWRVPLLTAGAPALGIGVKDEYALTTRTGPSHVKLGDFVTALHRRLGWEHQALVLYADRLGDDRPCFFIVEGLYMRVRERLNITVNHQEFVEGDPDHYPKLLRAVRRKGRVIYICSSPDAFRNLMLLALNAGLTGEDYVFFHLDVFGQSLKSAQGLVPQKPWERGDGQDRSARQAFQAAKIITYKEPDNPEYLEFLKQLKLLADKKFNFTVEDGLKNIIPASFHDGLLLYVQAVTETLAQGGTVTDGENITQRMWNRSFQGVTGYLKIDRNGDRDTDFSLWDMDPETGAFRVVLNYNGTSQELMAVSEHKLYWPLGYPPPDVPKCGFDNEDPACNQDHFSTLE
T1 sequence (peptide): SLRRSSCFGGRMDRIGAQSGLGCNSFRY

rat NPR1 (rNPR1) = target: T2, rat NPR1 (rNPR1) (rat, UniProt P18910 29-469, limits assumed)
T2 construct: Soluble antigen
T2 sequence: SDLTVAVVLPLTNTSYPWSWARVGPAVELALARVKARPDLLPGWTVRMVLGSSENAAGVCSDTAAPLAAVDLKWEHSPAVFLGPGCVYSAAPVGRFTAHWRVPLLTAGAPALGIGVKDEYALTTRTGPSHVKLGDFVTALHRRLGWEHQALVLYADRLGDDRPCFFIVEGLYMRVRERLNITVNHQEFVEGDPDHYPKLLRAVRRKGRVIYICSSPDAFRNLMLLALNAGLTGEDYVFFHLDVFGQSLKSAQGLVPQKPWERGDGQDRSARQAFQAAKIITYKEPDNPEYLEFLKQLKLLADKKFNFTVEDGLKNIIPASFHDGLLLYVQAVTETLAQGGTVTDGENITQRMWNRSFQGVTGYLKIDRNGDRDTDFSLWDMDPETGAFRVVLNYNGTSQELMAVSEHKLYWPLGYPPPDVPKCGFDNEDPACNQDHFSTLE

hNPR1-ANP complex = target: T3, hNPR1-ANP complex (human, UniProt P01160 124-151, limits assumed)
T3 construct: hNPR1 antigen in the presence of ANP; also called hNPR1 + 100 nM ANP
T3 sequence: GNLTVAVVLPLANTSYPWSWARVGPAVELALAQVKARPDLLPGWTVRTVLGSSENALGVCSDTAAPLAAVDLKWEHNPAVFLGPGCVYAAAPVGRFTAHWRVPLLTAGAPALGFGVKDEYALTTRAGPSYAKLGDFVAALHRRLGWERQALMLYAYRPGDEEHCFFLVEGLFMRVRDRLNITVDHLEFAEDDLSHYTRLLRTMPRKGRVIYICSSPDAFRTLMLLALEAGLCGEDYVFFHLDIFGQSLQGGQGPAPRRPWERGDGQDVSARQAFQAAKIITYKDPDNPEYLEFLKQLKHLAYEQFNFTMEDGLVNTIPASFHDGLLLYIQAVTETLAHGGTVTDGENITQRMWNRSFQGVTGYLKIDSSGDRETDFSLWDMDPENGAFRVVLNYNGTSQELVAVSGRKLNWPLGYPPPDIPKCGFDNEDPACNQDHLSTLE
T3 sequence (peptide): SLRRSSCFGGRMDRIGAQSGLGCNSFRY

- Kd (rNPR1-ANP complex): 0.1 nM
- Kd (rat NPR1 (rNPR1)): 0.1 nM
- Kd (hNPR1-ANP complex): 0.1 nM
B1: YY03 (FabCys format) (Fab, V domains shown)
VH: EVQLLESGGGLVQPGGSLRLSCAASGFTFSSYAISWVRQAPGKGLEWVSAISGSGGSTYYAESVKGRFTISRDNSKNTLYLQMNSLRAEDTAVYYCARESGYVYYLKFDYWGQGTLVTVSS
VL: DIQMTQSPSSLSASVGDRVTITCRASQSISSYLNWYQQKPGKAPKLLIYAASSLQSGVPSRFSGSGSGTDFTLTISSLQPEDFATYYCQQHVRVPITFGQGTKVEIK
notes: Monovalent FabCys
